Measurements: patent US6613746

Assays:
[1] = target: ELAM-Rg, soluble ELAM-1-IgG1 chimera (ELAM-1 extracellular domain fused to hinge, CH2 and CH3 domains of human IgG1) (human) (UniProt P16581); test: inhibition of adhesion of myeloid HL60 cells to immobilized ELAM-1, fusion protein at about 50 µg/ml
[2] = target: ELAM-Rg, soluble ELAM-1-IgG1 chimera (ELAM-1 extracellular domain fused to hinge, CH2 and CH3 domains of human IgG1) (human) (UniProt P16581); test: inhibition of adhesion of human T lymphocytes to immobilized ELAM-1, fusion protein at about 50 µg/ml

Sequence of ELAM-Rg, soluble ELAM-1-IgG1 chimera (ELAM-1 extracellular domain fused to hinge, CH2 and CH3 domains of human IgG1) (human) (P16581 22-556 limits assumed, stated change not applied): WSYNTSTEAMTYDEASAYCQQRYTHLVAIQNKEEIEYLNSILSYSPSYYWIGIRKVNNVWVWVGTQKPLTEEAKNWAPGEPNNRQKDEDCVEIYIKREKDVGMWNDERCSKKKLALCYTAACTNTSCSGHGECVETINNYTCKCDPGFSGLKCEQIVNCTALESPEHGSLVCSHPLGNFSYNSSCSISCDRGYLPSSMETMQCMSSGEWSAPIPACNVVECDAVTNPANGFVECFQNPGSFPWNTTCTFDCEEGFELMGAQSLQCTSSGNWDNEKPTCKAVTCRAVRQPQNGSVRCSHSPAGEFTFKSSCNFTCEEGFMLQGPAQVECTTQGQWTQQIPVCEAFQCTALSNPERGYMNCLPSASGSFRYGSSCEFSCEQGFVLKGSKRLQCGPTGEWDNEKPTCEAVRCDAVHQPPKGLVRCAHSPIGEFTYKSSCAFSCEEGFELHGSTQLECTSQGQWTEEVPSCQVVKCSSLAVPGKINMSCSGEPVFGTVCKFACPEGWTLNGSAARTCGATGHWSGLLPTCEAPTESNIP

For “α1-AGP-IgG1 fusion protein (α1-AGP-Hinge-CH2-CH3) produced in COS cells (Fc fusion)”, which inhibition of adhesion [1] is on record?
The inhibition of adhesion was > 50%.

What about the inhibition of adhesion [2] of the same substance?
Its inhibition of adhesion is > 50%.
